The results in this text go back to publication PMC3813429, “New Insight to Structure-Function Relationship of GalNAc Mediated Primary Interaction between Insecticidal Cry1Ac Toxin and HaALP Receptor of Helicoverpa armigera” (PLoS ONE, 2013).

The target of the assay is Cry1Ac WT toxin (Bacillus thuringiensis). Briefly: SPR. The following applies: both partners purified.

B1: HaALP, membrane bound alkaline phosphatase of Helicoverpa armigera (receptor)
chain: HWLHPAAPAAASRAETSANYWAQDAQAAINARLERVESVKKAHNVIMFLGDGMSVPTLAAARTLLGQRQGKTGEETKLHFETFPTIGLVKTYCVDAQIADSACTATAYLCGVKNNYGAIGVDGTVRRGDCQAASNTATHVESIAEWALADGRDVGIVTTTRITHASPAGTFAKTANRTWENDGEVSQMGLDAKDCPDIAHQLVHHHPGNKFKVIFGGGRRAFLPNTVQDDEGSYGRRIDNRDLIQEWKNDKDSRNVSHQYLWQREQLMNLNDDLPEYMLGLFESSHMEYHLKSDPQTEPTLAELTEVAIRSLRRNEKGFFLFVEGGRIDHAHHDNLVELALDETLEMDKAVATATKMLSEDDSLIVVTADHAHVMTINGYSGRGNDILGPSRDVGRDRMPYMTLSYTNGPGFRPHVNDIRQNVTAEPNYRTLDWESHVDVPLVDETHGGDDVAVFARGPHHSMFTGLYEQSQLPHLMAYAACIGPGRHACASAAHLPSAHFFVALPALFISILLR
modifications: glycan with α-GalNAc at the non-reducing terminal (site not stated)
In turn, B1 gave a Kd of 7.68 nM, a koff of 0.00129 s⁻¹ and an on-rate (kon) of 168000 M⁻¹ s⁻¹.

One may read the Kd as the equilibrium constant for the complex coming apart. A low value points to tighter binding. By koff is commonly meant the first-order rate constant of dissociation. One may read the kon as a measure of how fast the partners come together.
